US5550213, “Inhibitors of urokinase plasminogen activator” (Rutgers, The State University of New Jersey, dated 1996)
Numbering of substitutions follows the chain as printed.

B1: The PAI-2 derived mutant, 88 (designed binder)
chain: VDCSEYPKPACGRTGHPLCGSDNKTYGNKCNFCNAVVESNGTLTLSHFGKC
B2: The Nexin-1 derived mutant, 91 (designed binder)
chain: B1 chain with G12A, T14S, G15S, H16A
B3: The PAI-1 derived mutant, 89 (designed binder)
chain: B1 chain with G12A, T14M, G15A, H16A
B4: The Plasminogen derived mutant, 90 (designed binder)
chain: B1 chain with T14V, G15V, H16G

biological target: T1, Urokinase plasminogen activator (Homo sapiens (Human), UniProt P00749); assay: inhibition of UK (35 nM) activity on S-2288; Ki as slope of [I]o/(1-a) vs. 1/a

| Binder | Ki [nM] |
| --- | --- |
| B1 | 40 |
| B2 | 120 |
| B3 | 0.31 |
| B4 | 106 |

biological target: T1, Urokinase plasminogen activator; assay: inhibition of UK activity; Ki by non-linear regression (Enzfitter) of free enzyme versus inhibitor concentration
Description: Fractional enzyme activities for each inhibitor-UK interaction of the above discussed inhibitors were determined by the assay method of Empie and Laskowski (Empie, M. W. et al., *Biochem.* 21:2274–2284 (1982)), as adapted from Green and Work (Green, N. M. et al., Biochem. J. 54:347–352 (1953)). The concentration of UK used for these reactions was 35 nM. The reactions were carried out in Buffer C. […] These five mutants include the four detailed above (88, 89, 80, AND 91), and also a mutant with arginine at the P1 site of OM3TKY (P1-Arg). […] The values for PSTI, PAI-1, PAI-2, and Nexin-1 were obtained from Turpeinen, U. et al. (*Biochem. J.* 254:911–914 (1988)), Kruithof, C.K.O. et al. (Thromb.-Haemost. 55::65–68 (1986)), Christensen, U. et al. (Thromb.-Haemost. 48:24–26 (1982)), and Stein, P. E. et al. (*Nature* 347:99–102 (1990)), respectively.
K_i values for the wild-type and mutant inhibitors versus urokinase were also determined by non-linear regression of the following equation: […]
The non-linear regression was done using the program Enzfitter, by Robin Leatherbarrow. E_o represents a total enzyme concentration in the reaction, I_o represents total inhibitor concentration, E is the free enzyme for a given inhibitor concentration and K_i is the equilibrium constant for the inhibitor. E and K_i are the unknowns in the equation, and are solved for during the regression analysis. Enzyme and inhibitor concentrations used were determined as mentioned above.

| Binder | Ki [nM] |
| --- | --- |
| B1 | 67.6 |
| B2 | 505 |
| B3 | 35.9 |
| B4 | 51.3 |
